From the supplement of paper PMC7125110 come the findings set out here.

± gives the standard error. Fewer inactive variants are shown than the library holds. Some results are limits rather than exact numbers.

B1: glmS ribozyme (parent)
chain: AUAAAAGCGCCAGAACUACAGAAAUGUAGUUGACGAGGAGGAGGUUUAUCGAAUUUUCGGCGGAUGCCUCCAAA

Holding throughout (conditions): with glucosamine-6-phosphate
Variants of B1 are the subject of series [1]. Put plainly: self-cleavage kobs at 40 uM GlcN6P; higher = faster cleavage; RNA array. In a few lines: (§1)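 A hybridised Cy3 probe tracked barcoded ribozyme variants, transcribed in situ by E. coli RNA polymerase on sequenced MiSeq chips, at 37 °C. The variants received 40 μM to 10 mM glucosamine-6-phosphate in HEPES/KCl/Mg(OAc)2 buffer. kobs came from decay fits and kcat and KM from weighted Michaelis–Menten fits.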

Variants of B1 are the subject of series [2]. Put plainly: self-cleavage kobs at 160 uM GlcN6P; higher = faster cleavage; RNA array. In a few lines: as §1
In series [3] the parent is B1. Briefly: self-cleavage kobs at 640 uM GlcN6P; higher = faster cleavage; RNA array. In a few lines:
as §1

Series [4] covers variants of B1. Put plainly: self-cleavage kobs at 2500 uM GlcN6P; higher = faster cleavage; RNA array. In a few lines: as §1
In series [5] the parent is B1. Briefly: self-cleavage kobs at 10000 uM GlcN6P; higher = faster cleavage; RNA array. In a few lines:
as §1

Consider AUAAAAGCGCCAGAACUACAGAAAUGUAGUUGACGAGGAGGAGUUUUAUCGAAUUUUCGGCGGAUUCCGCCAAA [G44U G66U U69G], for which the “self-cleavage kobs at 40 uM GlcN6P” value with glucosamine-6-phosphate [1] is < 1e-05 s⁻¹.

As to AUAAAAGCGCCAGAACUACAGAAAUGUAGUUGACGGGGAGGAGGUUUAUCGAAUUUUCGGCGGAUGCCUCAAAA [A36G C71A], in the series with glucosamine-6-phosphate [1], the “self-cleavage kobs at 40 uM GlcN6P” value is < 1e-05 s⁻¹. In addition, in the series with glucosamine-6-phosphate [2], the “self-cleavage kobs at 160 uM GlcN6P” value is < 1e-05 s⁻¹. In addition, in the series with glucosamine-6-phosphate [3], the “self-cleavage kobs at 640 uM GlcN6P” value is < 1e-05 s⁻¹. For the same variant, in the series with glucosamine-6-phosphate [4], the “self-cleavage kobs at 2500 uM GlcN6P” value is < 1e-05 s⁻¹.

AUAAAAGCGCCAGAAAUACAGAAAUGUAGUUGACGAGGAGGAGGUUUAUGGAAUUUUCGGCGGAUGCCUCCAAA [C16A C50G]: the “self-cleavage kobs at 40 uM GlcN6P” value in the series with glucosamine-6-phosphate [1] turned out to be 0.000251 ± 0.0001 s⁻¹. Besides, in the series with glucosamine-6-phosphate [2], the “self-cleavage kobs at 160 uM GlcN6P” value is 7.18e-05 ± 1.9e-05 s⁻¹. Moreover, in the series with glucosamine-6-phosphate [3], the “self-cleavage kobs at 640 uM GlcN6P” value turned out to be 4.7e-05 ± 1.7e-05 s⁻¹. The “self-cleavage kobs at 2500 uM GlcN6P” value with glucosamine-6-phosphate [4] worked out at 5.49e-05 ± 1.1e-05 s⁻¹. For the same variant, in the series with glucosamine-6-phosphate [5], the “self-cleavage kobs at 10000 uM GlcN6P” value came out at 7.6e-05 ± 3.6e-05 s⁻¹.

For AUAAAAGAGCCAGAAUUACAGAAAUGUAGUUGACGAGGAGGAGGCUUAUCGAAUUUUCGGCUGAUGCCUACAAA [C8A C16U U45C G62U C70A], in the series with glucosamine-6-phosphate [1], the “self-cleavage kobs at 40 uM GlcN6P” value is < 1e-05 s⁻¹.

For the variant AUAAAAGCACCAGAACUACAGAAAUGUAGUUGACGAGGAGGAGGUUUAUCGAAUUUUUGGCGGAUGCCUCCAAA [G9A C58U], the “self-cleavage kobs at 40 uM GlcN6P” value in the series with glucosamine-6-phosphate [1] was < 1e-05 s⁻¹. Besides, the “self-cleavage kobs at 160 uM GlcN6P” value in the series with glucosamine-6-phosphate [2] was < 1e-05 s⁻¹. Also, the “self-cleavage kobs at 640 uM GlcN6P” value with glucosamine-6-phosphate [3] is < 1e-05 s⁻¹. Moreover, the “self-cleavage kobs at 2500 uM GlcN6P” value with glucosamine-6-phosphate [4] is < 1e-05 s⁻¹. For the same variant, the “self-cleavage kobs at 10000 uM GlcN6P” value in the series with glucosamine-6-phosphate [5] is < 1e-05 s⁻¹.

Regarding AUAAAAGCGCCAGAACUACAGAAAUGUAGUUGACGCGGAGGAAGUUCAUCGAAUUUUCGGCGGAUGCCUCCAAA [A36C G43A U47C], in the series with glucosamine-6-phosphate [1], the “self-cleavage kobs at 40 uM GlcN6P” value is < 1e-05 s⁻¹.

Take AUAAAAGCUCCAGAACUACAGAAAUGUAGUUGACGAGGAGGAGGGUUAUCGAAUUUUCGGCGGAUGCCUCCAAA [G9U U45G]: in the series with glucosamine-6-phosphate [1], the “self-cleavage kobs at 40 uM GlcN6P” value was < 1e-05 s⁻¹. The “self-cleavage kobs at 160 uM GlcN6P” value with glucosamine-6-phosphate [2] was < 1e-05 s⁻¹. Moreover, the “self-cleavage kobs at 640 uM GlcN6P” value in the series with glucosamine-6-phosphate [3] was < 1e-05 s⁻¹. The “self-cleavage kobs at 2500 uM GlcN6P” value in the series with glucosamine-6-phosphate [4] is < 1e-05 s⁻¹. In addition, the “self-cleavage kobs at 10000 uM GlcN6P” value with glucosamine-6-phosphate [5] was < 1e-05 s⁻¹.

Take AUAAAAGCGCCAGAACUACAGAAAUGUAGUUGACGAGUAGGAGGUUUAUCUAAGUUUCGGCGGAUACCUCCAAA [G38U G51U U54G G66A]: the “self-cleavage kobs at 40 uM GlcN6P” value with glucosamine-6-phosphate [1] is < 1e-05 s⁻¹.

Regarding AUAAAAGCGCCAGAACUACAGAAAUGUAGUUGACGACGAGGAGGUGUAUCGAAUUUUCGGCGGAUGCCUCCAAA [G37C U46G], the “self-cleavage kobs at 40 uM GlcN6P” value with glucosamine-6-phosphate [1] is < 1e-05 s⁻¹. Further, the “self-cleavage kobs at 160 uM GlcN6P” value with glucosamine-6-phosphate [2] is < 1e-05 s⁻¹. Further, the “self-cleavage kobs at 640 uM GlcN6P” value in the series with glucosamine-6-phosphate [3] was < 1e-05 s⁻¹.

Regarding AUAAAAGCGCCAGAACUACAGAAAUGUAGUUGACGAGGAGGAGGUUUGUCGAAUUUUCGGCGGAAGCAUCCAAA [A48G U65A C68A], in the series with glucosamine-6-phosphate [1], the “self-cleavage kobs at 40 uM GlcN6P” value was determined as 0.000357 ± 0.00011 s⁻¹. Besides, the “self-cleavage kobs at 10000 uM GlcN6P” value in the series with glucosamine-6-phosphate [5] was determined as 0.000113 ± 3.1e-05 s⁻¹.

Take AUAAAAGCGCCAGAAAUACAGAAAUGUAGUUGACGAGGAGGAGUUUUAUCGAAUUUUCGGCGGAUGCCUCCAAA [C16A G44U]: the “self-cleavage kobs at 40 uM GlcN6P” value in the series with glucosamine-6-phosphate [1] is < 1e-05 s⁻¹. In addition, the “self-cleavage kobs at 160 uM GlcN6P” value with glucosamine-6-phosphate [2] is < 1e-05 s⁻¹. Besides, the “self-cleavage kobs at 640 uM GlcN6P” value with glucosamine-6-phosphate [3] was < 1e-05 s⁻¹.

With AUAAAAUCGCCAGAACUACAGAAAUGUAGUUGACGAGGAGGAGGUUUAUCGAAUUUUCGGCGGAUGCCACCAAA [G7U U69A], the “self-cleavage kobs at 40 uM GlcN6P” value in the series with glucosamine-6-phosphate [1] came out at 3.92e-05 ± 1.7e-05 s⁻¹. The “self-cleavage kobs at 160 uM GlcN6P” value with glucosamine-6-phosphate [2] turned out to be 0.000853 ± 0.00032 s⁻¹.

For AUAAAAGCGCCAGAACUACAGAAAUGUAGUUGACUAGGAGGAGGUUUCUCGAAUUUUCGCCGGAUGCCUCCAAA [G35U A48C G60C], in the series with glucosamine-6-phosphate [1], the “self-cleavage kobs at 40 uM GlcN6P” value was < 1e-05 s⁻¹. For the same variant, the “self-cleavage kobs at 2500 uM GlcN6P” value with glucosamine-6-phosphate [4] is < 1e-05 s⁻¹. Also, the “self-cleavage kobs at 10000 uM GlcN6P” value in the series with glucosamine-6-phosphate [5] was < 1e-05 s⁻¹.

For the variant AUAAAAGCGCCAGAACUACAGAAAUGUAGUUGCCGAGGAGGAGGUUUAUCGAAUUUUCGGCGUAUUCCUCCAAA [A33C G63U G66U], in the series with glucosamine-6-phosphate [1], the “self-cleavage kobs at 40 uM GlcN6P” value is < 1e-05 s⁻¹. Also, the “self-cleavage kobs at 640 uM GlcN6P” value with glucosamine-6-phosphate [3] was < 1e-05 s⁻¹. Moreover, the “self-cleavage kobs at 10000 uM GlcN6P” value with glucosamine-6-phosphate [5] is < 1e-05 s⁻¹.
